Source: the RNAGym collection of RNA variant scans (doi:10.1073/pnas.2313332121)

B1: TPR t1 (parent)
chain: GACCAAUCUGCCCUCAGAGCUCGAGAACAUCUUCGGAUGCAGAGGAGGCAGGCUUCGGUGGCGCGAUAGCGCCAACGUCCUCAACCUCCAAUGCAUCCCACCACAUGAUGAUGCCUGAAGAGCCUUGGUUUUUUG

Variants of: B1
Test: polymerase ribozyme fitness, log enrichment relative to wild type (log ratio); higher = more active; in vitro selection for triplet polymerase activity
Method in brief: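 PCR was used to build mutant libraries for each subunit of a heterodimeric triplet polymerase ribozyme, which were then transcribed. A single in vitro selection round, in triplicate, used a frozen incubation at −7 °C and recovered extended constructs by gel excision, streptavidin beads and RT-PCR. Fitness is the logarithm of genotype enrichment relative to wild-type enrichment, averaged over replicates with inverse-variance weights. The logarithm is base 2, and after Illumina sequencing only genotypes with ≥10 input reads and ≥1 read per output were kept.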

In order of falling “polymerase ribozyme fitness (log ratio)” value:
1. GACCAAUCUGCCCUCAGAGCUCGAGAACAUCUUCGGAUGCAGAGGAGGCAGGCUUCGGUGGCGCGAUAACGCCAACGUCCUCAACCUCCAAUGCAUCCCACCACAUGAUGAUGCCUGAACAGCCUUGGUUUUUUG [G69A G120C]  -0.596
2. GACCAAUCUGCCCUCAGAGCUCGAGAACAUCUUCGGAUGCAGAGGAGGCAGGCUUCGGUGGCGCGAUAACGCCAACGUCCUCAACCUCCAAUGCAUCCCACCACAUGAUGAUGCCUGAAGAGCUUUGGUUUUUUG [G69A C124U]  -1.25
3. GACCAAUCUGCCCUCAGAGCUCGAGAACAUCUUCGGAUGCAGAGGAGGCAGGCUUCGGUGGCGCGAUAACGCCAACGUCCUCAACCUCCAAUGCAUCCCACCACAUGAUGAUGCCUGAAAAGCCUUGGUUUUUUG [G69A G120A]  -1.48
4. GACCAAUCUGCCCUCAGAGCUCGAGAACAUCUUCGGAUGCAGAGGAGGCAGGCUUCGGUGGCGCGAUAACGCCAACGUCCACAACCUCCAAUGCAUCCCACCACAUGAUGAUGCCUGAAGAGCAUUGGUUUUUUG [G69A U81A C124A]  -1.99
5. GACCAAUCUGCCCUCAGAGCUCGAGAACAUCUUCGGAUGCAGAGGAGGCAGGCUUCGGUGGCGCGAUAACGCCAACGUCCUCAACCUCCAAUGCAUCCCACCACAUGAUGAUGCCUGAAUAGCCUUGGUAUUUUG [G69A G120U U130A]  -2.09
6. GACCAAUCUGCCCUCAGAGCUCGAGAACAUCUUCGGAUGCAGAGGAGGCAGGCUUCGGUGGCGCGAUGGCGCCAACGUCCUCAACCUCCAAUGCAUCCCACCACAUGAUGAGGCCUGAAGAGCCUUGGUUUUUUG [A68G U112G]  -2.31
7. GACCAAUCUGCCCUCAGAGCUCGAGAACAUCUUCGGAUGCAGAGGAGGCAGGCUUCGGUGGCGCGAUAACGCCAACGUCCUCAACCUCCAAUGCAUCCCACCACAUGAUGAUGCCUGAAGAGCCUUGGUUUUUUG [G69A]  -2.44
8. GACCAAUCUGCCCUCAGAGCUCGAGAACAUCUUCGGAUGCAGAGGAGGCAGGCUUCGGUGGCGCGAUAACGCCAACGUCCUCAACCUCUAAUGCAUCCCACCACAUGAUGAUGCCUGAAGAGGCUUGGUUUUUUG [G69A C89U C123G]  -2.85
9. GACCAAUCUGCCCUCAGAGCUCGAGAACAUCUUCGGAUGCAGAGGAGGCAGGCUUCGGUGGCGCGAUAACGCCAACAUCCUCAACUUCCAAUGCAUCCCACCACAUGAUGAAGCCUGAAGAGCCUUGGUUUUUUG [G69A G77A C86U U112A]  -2.89
10. GACCAAUCUGCCCUCAGAGCUCGAGAACAUCUUCGGAUGCAGAGGAGGCAGGCUUCGGUGGCGCGAUGGCGCCAACGCCCUCAACCUCCAAUGCAUCCCACCACAUGAUGAUGCCUGAAGAGCCUUGGUUUUUUG [A68G U78C]  -3.07
11. GACCAAUCUGCCCUCAGAGCUCGAGAACAUCUUCGGAUGCAGAGGAGGCAGGCUUCGGUGGCGCGAUAAUGCCAACGUCCUCAACCUCCAAUGCAUCCCACCACAUGAUGAUGCCUGAAGAGCCUUGGUUUUUUG [G69A C70U]  -3.12
12. GACCAAUCUGCCCUCAGAGCUCGAGAACAUCUUCGGAUGCAGAGGAGGCAGGCUUCGGUGGCGCGAUGGCGCCAACGUCCUCAACCUCCAAUGCAUCCCACCACAUGAUGAUGCCUGAAGAGCCUUGGUUUAUUG [A68G U132A]  -3.13
13. GACCAAUCUGCCCUCAGAGCUCGAGAACAUCUUCGGAUGCAGAGGAGGCAGGCUUCGGUGGCGCGAUAACGCCAGCGUCCUCAACCUCCAAUGCACCCCACCACAUGAUGAUGCCUGAAGAGCCUUGGUUUUUUG [G69A A75G U96C]  -3.29
14. GACCAAUCUGCCCUCAGAGCUCGAGAACAUCUUCGGAUGCAGAGGAGGCAGGCUUCGGUGGCGCGAUAACGCCAACGUCCUCAACCUCCAAUGCAUCCCACCACAUGAUGAUGCCUGAAGAGCCUUGGUUUUUUA [G69A G135A]  -3.3
15. GACCAAUCUGCCCUCAGAGCUCGAGAACAUCUUCGGAUGCAGAGGAGGCAGGCUUCGGUGGCGCGAUAACGCCAACGUCCUCAACCUACAAUGCAUCCCACCACAUGAUGAUGCCUGAAGAGGAUUGGUUUUUUU [G69A C88A C123G C124A G135U]  -3.37
16. GACCAAUCUGCCCUCAGAGCUCGAGAACAUCUUCGGAUGCAGAGGAGGCAGGCUUCGGUGGCGCGAUAACGCCAACGUCCUCAACCUCCAAUGCCUCCCACCACAUGAUGAUACCUGAAGAGCCUUGGUUUUUUG [G69A A95C G113A]  -3.61
17. GACCAAUCUGCCCUCAGAGCUCGAGAACAUCUUCGGAUGCAGAGGAGGCAGGCUUCGGUGGCGCGAUAACGCCAACGUCCUCAACCUCCAAUGCAUCCCAACACAUGAUGAUGCCUGAAGAGCCUUGGUUUAUUG [G69A C101A U132A]  -3.65
18. GACCAAUCUGCCCUCAGAGCUCGAGAACAUCUUCGGAUGCAGAGGAGGCAGGCUUCGGUGGCGCGAUAACGCCAACGUCCUCAAUCUCCAAUGCAUCCCACCACAUGAUGAUGCCUGAAGAGCCUUGGUUUUUUG [G69A C85U]  -3.69
19. GACCAAUCUGCCCUCAGAGCUCGAGAACAUCUUCGGAUGCAGAGGAGGCAGGCUUCGGUGGCGCGAUAACGCCAACGUCCUCAACCUCCAAUGCAUCCCACCACAUGAUAAUGCCUGAAGAGCCUUGGUUUUUUG [G69A G110A]  -3.77
20. GACCAAUCUGCCCUCAGAGCUCGAGAACAUCUUCGGAUGCAGAGGAGGCAGGCUUCGGUGGCGCGAUAACGCAAACGUCCUAAACCUCCAAUGCAUCCCACCACAUGAUGAUGCCUGAAAAGCCUUGAUUUUUUG [G69A C73A C82A G120A G128A]  -3.86
21. GACCAAUCUGCCCUCAGAGCUCGAGAACAUCUUCGGAUGCAGAGGAGGCAGGCUUCGGUGGCGCGAUUGCGCCAACGUCCUCAACCUCCAAUGCAUCCCACCACAUGAUGAUGCCUGAAAAGCCUUGGUUUUUUG [A68U G120A]  -3.93
22. GACCAAUCUGCCCUCAGAGCUCGAGAACAUCUUCGGAUGCAGAGGAGGCAGGCUUCGGUGGCGCGAUGGCGCCAACGUCCUCAACCUCCAAUGCAUCCCACCACAUGAUGAUGCCUGAAGAGCCUUGGAUUUUUG [A68G U129A]  -4.01
23. GACCAAUCUGCCCUCAGAGCUCGAGAACAUCUUCGGAUGCAGAGGAGGCAGGCUUCGGUGGCGCGAUAACGCCAACCUCCUCAACCUCCAAUGUAUCCCACCACAUGAUGAUGCCUGAAGAGCCUUGGUUUUUUG [G69A G77C C94U]  -4.05
24. GACCAAUCUGCCCUCAGAGCUCGAGAACAUCUUCGGAUGCAGAGGAGGCAGGCUUCGGUGGCGCGAUAACGCCAACGUCCUUAACCUCCAAUGCAUCCCACCACAUGAUGAGGCCUGAAGAGCCUUGGUUUUUUG [G69A C82U U112G]  -4.1
25. GACCAAUCUGCCCUCAGAGCUCGAGAACAUCUUCGGAUGCAGAGGAGGCAGGCUUCGGUGGCGCGAUGGCGCCAACGUCCUCAACCUCCAAUGCAUCCCACCACAUGAUGAUGCCUGAAGAGCCUUGGGUUUUUG [A68G U129G]  -4.32
26. GACCAAUCUGCCCUCAGAGCUCGAGAACAUCUUCGGAUGCAGAGGAGGCAGGCUUCGGUGGCGCGAUGGCGCCAACGUCCUCAACCUCCAAUGCAUCCCACCACAUGAUGAUUCCUGAAGAGCCUUGGUUUUUUG [A68G G113U]  -4.53
27. GACCAAUCUGCCCUCAGAGCUCGAGAACAUCUUCGGAUGCAGAGGAGGCAGGCUUCGGUGGCGCGAUAACGCCAACGUCCUCAACCUCCAAUGCAUCCCACUACAUGAUGAUGCCUGAAGAGCCUUGGUUUUUUG [G69A C102U]  -4.72
28. GACCAAUCUGCCCUCAGAGCUCGAGAACAUCUUCGGAUGCAGAGGAGGCAGGCUUCGGUGGCGCGAUAAUGCCAACGUCCUCAACCUCCAAUGCAUCCCACCACAUGAUGAUGCCUGAAGAGCAUUGGUUUUUUG [G69A C70U C124A]  -4.91
29. GACCAAUCUGCCCUCAGAGCUCGAGAACAUCUUCGGAUGCAGAGGAGGCAGGCUUCGGUGGCGCGAUUGCGCCAACGUCCUCAACCUCCAAUGCAUCCCACCACAUGAUGAUGCCUGAAGAGCCUUGGUCUUUUG [A68U U130C]  -5.02
30. GACCAAUCUGCCCUCAGAGCUCGAGAACAUCUUCGGAUGCAGAGGAGGCAGGCUUCGGUGGCGCGAUGGCGCCAACGUCCACAACCUCCAAUGCAUCCUACCACAUGAUGUUGCCUGAAGAGCUUUGGUUUUUUG [A68G U81A C99U A111U C124U]  -5.02
31. GACCAAUCUGCCCUCAGAGCUCGAGAACAUCUUCGGAUGCAGAGGAGGCAGGCUUCGGUGGCGCGAUAACGCCAACGUCCUCAACCUCCACUGCAUCCCACCACAUGAUGAUGCCUGAAGAGCCUUGGUUUUUUG [G69A A91C]  -5.04
32. GACCAAUCUGCCCUCAGAGCUCGAGAACAUCUUCGGAUGCAGAGGAGGCAGGCUUCGGUGGCGCGAUUGCGCCAACGUCCUCAACCUCCAAUGCAUCCCACCACAUGAUGAUGCCUGAACAGCCUUGGUUUUUUG [A68U G120C]  -5.33
33. GACCAAUCUGCCCUCAGAGCUCGAGAACAUCUUCGGAUGCAGAGGAGGCAGGCUUCGGUGGCGCGAUAACGCCAACGUCCUCAAACUCCAAUGCAUCCCACCACAAGAUGAUGCCUGAAGAGCCAUGGUUUUUUG [G69A C85A U106A U125A]  -5.49
34. GACCAAUCUGCCCUCAGAGCUCGAGAACAUCUUCGGAUGCAGAGGAGGCAGGCUUCGGUGGCGCGAUUGCGCCAACGUCCUCAACCUCCAAUGCAUCCCACCACAUGAUGAAGCCUGAAGAGCCUUGGUUUUUUG [A68U U112A]  -5.84
35. GACCAAUCUGCCCUCAGAGCUCGAGAACAUCUUCGGAUGCAGAGGAGGCAGGCUUCGGUGGCGCGAUGGCACCAACGUCCUCAACCUCCAAUGCAUCCCAUCACAUGAUGAUGCCUGAAGAGCCUUGGUUUUUUG [A68G G71A C101U]  -5.85
36. GACCAAUCUGCCCUCAGAGCUCGAGAACAUCUUCGGAUGCAGAGGAGGCAGGCUUCGGUGGCGCGAUAACGCCAACGUCCUCAACCUCCAAUGCAUCCCACCACAUGAUCAUGCCUGAAGAGCCUUGGUUUUUUG [G69A G110C]  -6.02
37. GACCAAUCUGCCCUCAGAGCUCGAGAACAUCUUCGGAUGCAGAGGAGGCAGGCUUCGGUGGCGCGAUAACGCCAACGUCCUCAACCUCCAAUACAUCCCACCACAUGAUGAUCCCUGAAGAGCCUUGGUUUUUUG [G69A G93A G113C]  -6.22
38. GACCAAUCUGCCCUCAGAGCUCGAGAACAUCUUCGGAUGCAGAGGAGGCAGGCUUCGGUGGCGCGAUUGCGCCAACGUCCUCAACCUCCAAUGCAUCCCACCACAUGAUGAUGCCUGAAGUGCCUUGGUUUUUUG [A68U A121U]  -6.36
39. GACCAAUCUGCCCUCAGAGCUCGAGAACAUCUUCGGAUGCAGAGGAGGCAGGCUUCGGUGGCGCGAUAACGCCAACGUCCUCAACCUCCAAAGCAUCCCACCACAUGAUGAUGCCUGAAGAGCCUUGGUUUUUUG [G69A U92A]  -6.38
40. GACCAAUCUGCCCUCAGAGCUCGAGAACAUCUUCGGAUGCAGAGGAGGCAGGCUUCGGUGGCGCGAUUGCGCCAACGUCCUCAACCUCCAAUGCAUCCCACCACAUGAUGAUGCCUGAAGGGCCUUGGUUUUUUG [A68U A121G]  -6.65
41. GACCAAUCUGCCCUCAGAGCUCGAGAACAUCUUCGGAUGCAGAGGAGGCAGGCUUCGGUGGCGCGAUAACGCCAACGUCCGCACCCUCCAAUUCAUGCCACCACAUGAUGAAGCCUGAAGAGCCUUGGUUUUUUG [G69A U81G A84C G93U C97G U112A]  -6.86
42. GACCAAUCUGCCCUCAGAGCUCGAGAACAUCUUCGGAUGCAGAGGAGGCAGGCUUCGGUGGCGCGAUUGCGCCAACGUCCUCAACCUCCAAUGCAUCCCACCACAUGAAGAUGCCUGAAGAGCCUUGGGUUUUUG [A68U U109A U129G]  -7.47
